Laboratory results reported in IntAct's records for PubMed 19559761.

Target: ef1a2_human EEF1A2 (UniProt Q05639)
Chain of UniProt Q05639 (Q05639 whole entry): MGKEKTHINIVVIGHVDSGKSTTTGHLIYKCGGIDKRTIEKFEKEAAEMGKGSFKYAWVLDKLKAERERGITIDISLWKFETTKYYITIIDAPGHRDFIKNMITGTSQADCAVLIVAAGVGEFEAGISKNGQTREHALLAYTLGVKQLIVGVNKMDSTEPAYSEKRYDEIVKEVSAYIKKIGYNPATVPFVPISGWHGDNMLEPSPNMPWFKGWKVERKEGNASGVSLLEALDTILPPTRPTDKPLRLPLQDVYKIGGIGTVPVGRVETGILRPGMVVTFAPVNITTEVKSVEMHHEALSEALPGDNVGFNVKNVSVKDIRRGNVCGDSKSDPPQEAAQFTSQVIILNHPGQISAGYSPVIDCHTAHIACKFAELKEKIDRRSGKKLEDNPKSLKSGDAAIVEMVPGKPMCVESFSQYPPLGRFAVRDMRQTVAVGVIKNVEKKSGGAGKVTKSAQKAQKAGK

effect of a mutation on the interaction: increasing interaction
Substance: Leucine-rich repeat serine/threonine-protein kinase 2 (Homo sapiens), Q5S007 G2019S
